Reference: patent publication US20130011868A1

Columns and labels:
[1] = target: rat GPVI-hFc fusion protein (rat; mouse; human); experiment: ELISA, immobilized rat GPVI-hFc, control
[2] = target: human GPVI-hFc fusion protein (human) (UniProt Q9HCN6); experiment: ELISA, immobilized hGPVI-hFc; +++ = absorbance greater than 2.0
[3] = target: hGPVI-mL9-hFc substituted mutant protein (human) (UniProt Q9HCN6); experiment: ELISA, immobilized hGPVI-mL9-hFc
[4] = target: human GPVI-hFc fusion protein (human) (UniProt Q9HCN6); experiment: ELISA, immobilized hGPVI-hFc; ++ = absorbance 1.0 to 2.0
[5] = target: human GPVI-hFc fusion protein (human) (UniProt Q9HCN6); experiment: ELISA, immobilized hGPVI-hFc; + = absorbance 0.5 up to 1.0

Sequence of rat GPVI-hFc fusion protein (rat; mouse; human) (P0C191 205-265): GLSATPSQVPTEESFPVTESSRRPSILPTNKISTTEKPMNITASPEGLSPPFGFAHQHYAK

absorbance at 450 nm (absorbance 450 nm) [1]	absorbance [2] [od]	absorbance [3] [od]	absorbance [4] [od]	absorbance [5] [od]	Molecule
0.123	–	–	–	–	normal mouse IgG (antibody)
–	> 2	< 0.5	–	–	F1249-18-2 (antibody, from a related filing, V domains shown) VH: QVQLQQPGAELVKPGASVKLSCKASGYTFTSYWMHWLKQRPGQGLEWIGMIHPNSDITNYNEKFKNKATLTVDKSSSTAYMQLSSLTSEDSAVYYCARSGDYYAMDYWGQGTSVTVSS VL: SIVMTQTPKFLLVSAGDRVTITCKASQSVSNDVAWYQQKPGQSPKLLIYYASNRYTGVPDRFTGSGYGTDFTFTISTVQAEDLAVYFCQQDYSSPPTFGGGTKLEIKR
–	–	< 0.5	1 to 2	–	F1249-5-1 (antibody, from a related filing, V domains shown) VH: QVQLQQPGAELVKPGASVKLSCKASGYTFTSYWMHWLKQRPGQGLEWIGMIHPNSDITNYNEKFKNKATLTVAKSSSTAYMQLSSLTSEDSAVYYCARLGDYYAMDYWGQGTSVTVSS VL: SIVMTQTPKFLLVSAGDRVTITCKASQSVSNDVTWYQQKPGQSPKLLIYYASNRYTGVPDRFTGSGYGTDFTFTISTVQAEDLAVYFCQQDYSSPPTFGGGTKLEIKR
–	–	< 0.5	1 to 2	–	F1245-6-2 (antibody, from a related filing, V domains shown) VH: QVQLQQPGAELVKPGASVKLSCKASGYTFTSYWMHWVKQRPGQGLEWIGMIHPNSGSTNYNEKFKSKATLTVDKSSSTAYMQLSSLTSEDSAVYYCARGGVTPVAYWGQGTLVTVSA VL: SIVMTQTPKFLLVSAGDRVTITCKASQSVSNDVAWYQQKPGQSPKLLIYYASNRYTGVPYRFTGSGYGTDFTFTISTVQAEDLAVYFCQQDYSSPWTFGGGTKLEIKR
–	–	< 0.5	1 to 2	–	F1245-5-1 (antibody, from a related filing, V domains shown) VH: QVQLQQPGAELVKPGASVKLSCKASGYTFISYWMHWVKQRPGQGLEWIGMIHPNSGSTHYNEKFKSKATLTVDKSSSTAYMQLSSLTSEDSAVYYCARGGVTPVAYWGQGTLVTVSA VL: SIVMTQTPKFLLVSAGDRVTITCKASQSVSNDVAWYQQKPGQSPKLLIYYASNRYTGVPDRFTGSGYGTDFTFTISTVQAEDLAVYFCQQDYSSPWTFGGGTKLEIKR
–	> 2	< 0.5	–	–	F1245-4-1 (antibody, from a related filing, V domains shown) VH: QVQLQQPGAELVKPGASVKLSCKASGCTFTSYWMHWVKQRPGQGLEWIGMIHPNSDNTNYNEKFKSKATLTVDKSSSTAYMHLSSLTSEDSAVYYCATHYYDYVDYWGQGTTLTVSS VL: NIVMTQTPKFLLVSAGDRVTITCKASQSVSNDVAWYQQKPGQSPKLLIYYASNRYTGVPDRFTGSGYGTDFTFTISTVQAEDLAVYFCQQDYSSPWTFGGGTKLEIKR
–	–	< 0.5	1 to 2	–	F1245-7-1 (antibody, from a related filing, V domains shown) VH: QVQLQQPGAELVKPGASVKLSCKASGYTFTSYWMHWVKQRPGQGLEWIGMIHPNSGSTNYNEKFKSKATLTVDKSSSTAYMQLSSLTSEDSAVYYCASPVTAVVEYYFDYWGQGTTLTVSS VL: SIVMTQTPKFLLVSAGDRVTITCKASQSVSNDVAWYQQKPGQSPKLLIYYASNRYTGVPDRFTGSGYGTDFTFTISTVQAEDLAVYFCQQDYSSLTFGSGTKLEIKR
0.137	–	< 0.5	–	–	F1232-37-2 (antibody, from a related filing, V domains shown) VH: VQLQQSGPELVRPGESVKISCKGSGYTFTDYAIHWVKLSHAKSLEWIGVISIYYDDTNYNQKFKGKATMTVDKSSSTAYLELARLTSEDSAIYYCARRRDSSGPYAMDYWGQGTSVTVSS VL: DIVLTQSPASLAVSLGQRATISCRASESVDSYGNSFMHWYQQKPGQPPKLLIYRASNLESGIPARFSGSGSRTDFTLTINPVEADDVATYYCQQSNEDPYTFGGGTKLEIKR
–	–	< 0.5	1 to 2	–	F1246-1-1 (antibody, from a related filing, V domains shown) VH: EVQLVESGGDLVKPGGSLKLSCAASGFTFSSYGMSWVRQTPDKRLEWVATISNGGTYTYYPDSVKGRFTISRDNAKNTLYLQMSSLKSDDTAMYYCGRLRDYYAMDYWGQGTSVTVSS VL: DIVLTQSPASLAVSLGQRATISCRASESVDSYGNSFMHWYQQKPGQPPKLLIYRASNLESGIPARFSGSGSRTDFTLTINPVEADDVATYYCQQSNEDPWTFGGGTKLEIKR
–	> 2	< 0.5	–	–	F1249-20-1 (antibody, from a related filing, V domains shown) VH: QVQLQQSGAELVRPGVSVKISCKGSGYTFTDYAMHWVKQSHAKSLEWIGVISTYYGDTSYNQKFKGKATMTVDKSSSTAYMELARLTSEDSAIYYCARAEDYDPWFAYWGQGTLVTVSA VL: DIVLTQSPASLAVSLGQRATISCRASESVDSYGNSFMYWYQQKPGQPPKLLIYRASNLESGIPARFSGSGSRTDFTLTINPVEADDVATYYCQQSDEDPLTFGAGTKLELKR
–	> 2	< 0.5	–	–	F1249-30-1 (antibody, from a related filing, V domains shown) VH: QVQLQQSGAELVRPGVSVKISCKGSGYTFTDYAMHWVKQSHAKSLEWIGVISTYYGDTSYNQKFKGKAAMTVDKSSSTAYMELARLTSDDSAIYYCARAEDYDPWFAYWGQGTLVTVSA VL: DIVLTQSPASLAVSLGQRATISCRASESVDSYGNSFMHWYQQKPGQPPKLLIYRASNLESGIPARFSGSGSRTDFTLTINPVEADDVATYYCQQSDEDPLTFGAGTKLELKR
–	–	< 0.5	–	0.5 to 1	F1249-3-2 (antibody, from a related filing, V domains shown) VH: EVQLVESGGGLVKPGGSLKLSCAASGFTFSSYGMSWVRQTPDKRLEWVATISSGGSYTYYSDSVKGRFTISRDNAKNNLYLQLSSLKSQDTAIYYCARDSGYFDYWGQGTTLTVSS VL: NIVLTQSPASLAVSLGQRATISCRASESVDSYGNSFMHWYQQKPGQPPKLLIYLASNLESGVPARFSGSGSRTDFTLTIDPVEADDAATYYCQQNNEDPRTFGGGTKLEIKR
–	> 2	< 0.5	–	–	F1249-24-1 (antibody, from a related filing, V domains shown) VH: QVQLQQSGAELVRPGVSVKISCKGSGYTFTDYAMHWVKQSHAKSLEWIGVISTYYGDTSYNQKFKGKATMTVDKSSSTAYMELARLTSEDSAIYYCARAEDYDPWFAYWGQGTLVTVSA VL: DIVLTQSPASLAVSLGQRATISCRASESVDSYGNSFMHWYQQKPGQPPKLLIYRASNLESGIPARFSGSGSRTDFTLTINPVEADDVATYYCQQSDEDPLTFGAGTKLELKR
